In US9315825B2, “Pharmacologically induced transgene ablation system” (The Trustees of the University of Pennsylvania, priority 2010, dated 2016):

Tested on: pCMV.Luciferase reporter gene expression in HEK293 cells
Experiment: Ablation of luciferase reporter by FokI ablators co-transfected into HEK293 cells (Dual Luciferase assay)
Assay type: cell-based, human
Conditions: for ablation of Luc reporter with increasing concentration of ablator expression plasmid: 6.25, 12.5, 25, 50 and 100 ng expression plasmid cotransfected with 50 ng pCMV.Luciferase; for expression of the luciferase reporter gene: FIG. 18A: 50 ng pCMV.Luciferase + 200 ng pCMV.FokI, or + transfected FokI protein
Protocol: Open reading frames encoding for various endonucleases were codon optimized and de novo synthesized by GeneArt. Ablator expression and target plasmids were produced using standard molecular biological cloning techniques. Transfections were performed in HEK293 cells using Lipofectamine™ 2000 transfection reagent (Life Technologies). All transfections were performed using optimal transfection conditions as defined in transfection reagent protocol. Briefly, 200-250 ng plasmid DNA (excluding transfection control plasmid) was complexed with Lipofectamine™ 2000 transfection reagent and added to cells in 96 well plates. DNA quantities were consistent across all conditions by supplementation with an unrelated plasmid containing the same promoter as test plasmids. Transfection complexes were incubated with cells for 4-6 hours as transfection reagent protocol before the addition of FBS supplemented media. Transfected cells were incubated at 37° C. for 24-72 hours. Following incubation, cells were assayed for reporter gene expression using Promega Dual Luciferase detection kit according to the manufacturer's instructions on a BioTek Clarity platereader and renilla luciferase was used to control for transfection efficiency. All samples were performed in quadruplicate and standard errors of the mean were calculated.
The amino acid sequence of the FokI enzyme is provided in SEQ ID NO: 12, wherein amino acids 1 to 387 are the DNA binding domain and amino acids 387 to 584 are the catalytic domain. The codon optimized FokI sequence is provided in SEQ ID NO:1.
In a dose-dependent experiment, the FokI expression vector contained the FokI catalytic domain fused to a zinc finger DNA binding domain (ZFHD). This construct, which is 963 bp, is provided in SEQ ID NO: 21 and is composed of base pairs 1 to 366 bp ZFHD, 367 to 372 bp linker, and 373 to 963 bp FokI catalytic domain. The resulting expression product comprises amino acids 1 to 122 (ZFHD), amino acids 123-124 are a linker and amino acids 125 to 321 are from the FokI catalytic domain. […] No ablation sites were required to be engineered into the transcription unit containing the transgene in this illustration, as luciferase contains multiple native FokI sites.
The plasmid contructs in this example contains either the FokI catalytic domain (198 amino acids (SEQ ID NO: 14), corresponding to amino acids 387 to 584 of the full-length protein) (untethered FokI) or a ZFHD-Fokl catalytic domain of 963 bp as described in Part A above (tethered FokI). Even at the highest concentration, the catalytic domain of FokI which is un-tethered to DNA does have no effect on expression of Luc reporter gene (FIG. 19A).
The HTH-FokI Catalytic domain (SEQ ID NO:5), is composed of 1-171 bp HTH from Gin (a serine recombinase), a linker (bp 172-177), and a FokI catalytic domain (178-768 bp) derived from codon-optimized FokI. The resulting chimeric enzyme (SEQ ID NO: 6) contains aa 1-57 of HTH from Gin, a linker (aa 58-59), and a FokI catalytic domain (amino acids 60-256).

Molecule	ablation of Luc reporter with increasing concentration of ablator expression plasmid	expression of the luciferase reporter gene	further results
ZFHD-FokI: FokI catalytic domain fused to a zinc finger homeodomain DNA binding domain (ZFHD), 963 bp, SEQ ID NO: 21	dose dependent ablation		ablation of Luc reporter with increasing concentration of ablator expression plasmid (listed as ZF-HD-FokI): effectively ablated
wild-type FokI: full-length FokI enzyme (SEQ ID NO: 12) expressed from a cotransfected codon optimized plasmid (protein) MFLSMVSKIRTFGWVQNPGKFENLKRVVQVFDRNSKVHNEVKNIKIPTLVKESKIQKELVAIMNQHDLIYTYKELVGTGTSIRSEAPCDAIIQATIADQGNKKGYIDNWSSDGFLRWAHALGFIEYINKSDSFVITDVGLAYSKSADGSAIEKEILIEAISSYPPAIRILTLLEDGQHLTKFDLGKNLGFSGESGFTSLPEGILLDTLANAMPKDKGEIRNNWEGSSDKYARMIGGWLDKLGLVKQGKKEFIIPTLGKPDNKEFISHAFKITGEGLKVLRRAKGSTKFTRVPKRVYWEMLATNLTDKEYVRTRRALILEILIKAGSLKIEQIQDNLKKLGFDEVIETIENDIKGLINTGIFIEIKGRFYQLKDHILQFVIPNRGVGTKQLVKSELEEKKSELRHKLKYVPHEYIELIEIARNPTQDRILEMKVMEFFMKVYGYRGEHLGGSRKPDGAIYTVGSPIDYGVIVDTKAYSGGYNLPIGQADEMQRYVEENQTRNKHINPNEWWKVYPSSVTEFKFLFVSGHFKGNYKAQLTRLNHITNCNGAVLSVEELLIGGEMIKAGTLTLEEVRRKFNNGEINF		effective ablated	
HTH-FokI: HTH from Gin (a serine recombinase), a linker and FokI catalytic domain, SEQ ID NO: 6 (protein) MGRPPRLTKAEWEQAGRLLAQGIPRKQVALIYDVALSTLYKKHPAKRAHIENDDRINGTKQLVKSELEEKKSELRHKLKYVPHEYIELIEIARNPTQDRILEMKVMEFFMKVYGYRGEHLGGSRKPDGAIYTVGSPIDYGVIVDTKAYSGGYNLPIGQADEMQRYVEENQTRNKHINPNEWWKVYPSSVTEFKFLFVSGHFKGNYKAQLTRLNHITNCNGAVLSVEELLIGGEMIKAGTLTLEEVRRKFNNGEINF	effectively ablated		
FokI protein: FokI protein delivered (transfected) to the cells (protein, UniProt P14870 2-579, looked up) Type II restriction enzyme …: VSKIRTFGWVQNPGKFENLKRVVQVFDRNSKVHNEVKNIKIPTLVKESKIQKELVAIMNQHDLIYTYKELVGTGTSIRSEAPCDAIIQATIADQGNKKGYIDNWSSDGFLRWAHALGFIEYINKSDSFVITDVGLAYSKSADGSAIEKEILIEAISSYPPAIRILTLLEDGQHLTKFDLGKNLGFSGESGFTSLPEGILLDTLANAMPKDKGEIRNNWEGSSDKYARMIGGWLDKLGLVKQGKKEFIIPTLGKPDNKEFISHAFKITGEGLKVLRRAKGSTKFTRVPKRVYWEMLATNLTDKEYVRTRRALILEILIKAGSLKIEQIQDNLKKLGFDEVIETIENDIKGLINTGIFIEIKGRFYQLKDHILQFVIPNRGVTKQLVKSELEEKKSELRHKLKYVPHEYIELIEIARNSTQDRILEMKVMEFFMKVYGYRGKHLGGSRKPDGAIYTVGSPIDYGVIVDTKAYSGGYNLPIGQADEMQRYVEENQTRNKHINPNEWWKVYPSSVTEFKFLFVSGHFKGNYKAQLTRLNHITNCNGAVLSVEELLIGGEMIKAGTLTLEEVRRKFNNGEINF		partial ablation	
NLS-HTH-FokI: HTH-FokI fusion which further has a heterologous NLS at its N-terminus (protein, modified enzyme from SV40, Gin and FokI, HTH-FokI fusion which further has a heterologous NLS at its N-terminus) MPKKKRKVGRPPRLTKAEWEQAGRLLAQGIPRKQVALIYDVALSTLYKKHPAKRAHIENDDRINGTKQLVKSELEEKKSELRHKLKYVPHEYIELIEIARNPTQDRILEMKVMEFFMKVYGYRGEHLGGSRKPDGAIYTVGSPIDYGVIVDTKAYSGGYNLPIGQADEMQRYVEENQTRNKHINPNEWWKVYPSSVTEFKFLFVSGHFKGNYKAQLTRLNHITNCNGAVLSVEELLIGGEMIKAGTLTLEEVRRKFNNGEINF			activity of HTH-FokI after adding heterologous NLS at the N-terminus (6.25-100 ng expression plasmid with 50 ng pCMV.Luciferase, separate experiment): further improved
untethered FokI: FokI catalytic domain alone, 198 amino acids (SEQ ID NO: 14), un-tethered to DNA (protein) MKQLVKSELEEKKSELRHKLKYVPHEYIELIEIARNPTQDRILEMKVMEFFMKVYGYRGEHLGGSRKPDGAIYTVGSPIDYGVIVDTKAYSGGYNLPIGQADEMQRYVEENQTRNKHINPNEWWKVYPSSVTEFKFLFVSGHFKGNYKAQLTRLNHITNCNGAVLSVEELLIGGEMIKAGTLTLEEVRRKFNNGEINF	no effect		
